B1: MDTS6TSP1 protein (protein)
chain: FVSIPRYVETLVVADESMVKFHGADLEHYLLTLLATAARLYRHPSILNPINIVVVKVLLLRDRDSGPKVTGNAALTLRNFCAWQKKLNKVSDKHPEYWDTAILFTRQDLCGATTCDTLGMADVGTMCDPKRSCSVIEDDGLPSAFTTAHELGHVFNMPHDNVKVCEEVFGKLRANHMMSPTLIQIDRANPWSACSAAIITDFLDSGHGDCLLDQPSKPISLPEDLPGASYTLSQQCELAFGVGSKPCPYMQYCTKLWCTGKAKGQMVCQTRHFPWADGTSCGEGKLCLKGACVERHNLNKHRVDGSWAKWDPYGPCSRTCGGGVQLARRQCTNPTPANGGKYCEGVRVKYRSCNLEPCPSSASGKSFREEQ
B2: MDTS6Dis (protein)
chain: FVSIPRYVETLVVADESMVKFHGADLEHYLLTLLATAARLYRHPSILNPINIVVVKVLLLRDRDSGPKVTGNAALTLRNFCAWQKKLNKVSDKHPEYWDTAILFTRQDLCGATTCDTLGMADVGTMCDPKRSCSVIEDDGLPSAFTTAHELGHVFNMPHDNVKVCEEVFGKLRANHMMSPTLIQIDRANPWSACSAAIITDFLDSGHGDCLLDQPSKPISLPEDLPGASYTLSQQCELAFGVGSKPCPYMQYCTKLWCTGKAKGQMVCQTRHFPWADGTSCGEGKLCLKGACVERHNLNKHRVDGSGSAAADYKDDDDK
B3: MDTS6Pro (protein)
chain: FVSIPRYVETLVVADESMVKFHGADLEHYLLTLLATAARLYRHPSILNPINIVVVKVLLLRDRDSGPKVTGNAALTLRNFCAWQKKLNKVSDKHPEYWDTAILFTRQDLCGATTCDTLGMADVGTMCDPKRSCSVIEDDGLPSAFTTAHELGHVFNMPHDNVKVCEEVFGKLRANHMMSPTLIQIDRANPWSACSAAIITDFLDSGHGDCLLDQPSKPISLPEDLPGASYTLSQQGSAAADYKDDDDK
B4: MDTS6Cys (protein)
chain: FVSIPRYVETLVVADESMVKFHGADLEHYLLTLLATAARLYRHPSILNPINIVVVKVLLLRDRDSGPKVTGNAALTLRNFCAWQKKLNKVSDKHPEYWDTAILFTRQDLCGATTCDTLGMADVGTMCDPKRSCSVIEDDGLPSAFTTAHELGHVFNMPHDNVKVCEEVFGKLRANHMMSPTLIQIDRANPWSACSAAIITDFLDSGHGDCLLDQPSKPISLPEDLPGASYTLSQQCELAFGVGSKPCPYMQYCTKLWCTGKAKGQMVCQTRHFPWADGTSCGEGKLCLKGACVERHNLNKHRVDGSWAKWDPYGPCSRTCGGGVQLARRQCTNPTPANGGKYCEGVRVKYRSCNLEPCPSSASGKSFREEQCEAFNGYNHSTNRLTLAVAWVPKYSGVSPRDKCKLICRANGTGYFYVLAPKVVDGTLCSPDSTSVCVQGKCIKAGCDGNLGSKKRFDKCGVCGGDNKSCKKVTGGSAAADYKDDDDK

Columns and labels:
[1] = molecular target: recombinant aggrecan G1G2, P16112
[2] = molecular target: natural type aggrecan (mfd. by Seikagaku Kogyo)

Sequence of recombinant aggrecan G1G2, P16112 (P16112 20-675): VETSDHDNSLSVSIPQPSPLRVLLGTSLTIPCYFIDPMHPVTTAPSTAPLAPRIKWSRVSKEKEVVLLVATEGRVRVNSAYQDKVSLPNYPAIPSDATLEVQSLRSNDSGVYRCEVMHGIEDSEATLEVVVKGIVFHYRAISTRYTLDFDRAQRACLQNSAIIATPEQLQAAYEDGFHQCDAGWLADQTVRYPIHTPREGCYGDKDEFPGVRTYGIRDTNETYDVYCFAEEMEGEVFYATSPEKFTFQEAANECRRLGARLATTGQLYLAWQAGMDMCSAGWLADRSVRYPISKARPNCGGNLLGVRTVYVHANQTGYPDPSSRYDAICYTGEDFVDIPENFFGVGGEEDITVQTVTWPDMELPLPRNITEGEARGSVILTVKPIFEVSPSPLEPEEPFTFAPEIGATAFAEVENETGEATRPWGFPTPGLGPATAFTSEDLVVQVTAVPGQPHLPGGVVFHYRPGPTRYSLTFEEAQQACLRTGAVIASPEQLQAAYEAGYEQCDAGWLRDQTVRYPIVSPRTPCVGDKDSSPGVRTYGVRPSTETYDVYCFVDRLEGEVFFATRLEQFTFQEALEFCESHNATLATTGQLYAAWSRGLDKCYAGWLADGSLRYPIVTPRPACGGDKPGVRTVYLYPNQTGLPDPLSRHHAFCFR

| Protein | recombinant aggrecan G1G2 degrading activity (western blot, anti-His detection) [1] | aggrecanase activity (method of Example 7-3, neoepitope western blot) [1] | cleavage at the aggrecanase site (western blot) [2] | degradation of natural type aggrecan (neoepitope western blot) [2] | cleavage at the aggrecanase site (western blot) [1] |
| --- | --- | --- | --- | --- | --- |
| B1 | degraded fragment of the recombinant aggrecan, which was not found in the control in which only the expression plasmid was introduced, was detected | – | – | – | – |
| B2 | – | the aggrecanase activity was not detected in the culture supernatants in which MDTS6Pro and MDTS6Dis were expressed | – | – | – |
| B3 | – | the aggrecanase activity was not detected in the culture supernatants in which MDTS6Pro and MDTS6Dis were expressed | – | – | – |
| B4 | – | the aggrecanase activity was detected in the culture supernatant in which MDTS6Cys was expressed | the recombinant aggrecan G1G2 and the natural type aggrecan are cleaved off at the site between Glu373-Ala374 ... by MDTS6Cys | a band of 80 to 90 KDa was detected in the case of MDTS6Cys in addition to a band of about 150 KDa | the recombinant aggrecan G1G2 and the natural type aggrecan are cleaved off at the site between Glu373-Ala374 ... by MDTS6Cys |

— patent US20040142445
